The series relates to MS2 coat protein. Put plainly: apparent KD of MS2 coat protein; designed switch direction (-1 OFF switch, 1 ON switch): -1; higher = weaker reporter binding. Put shortly:
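Designed RNA switches with common flanks were transcribed on Illumina chips by stalled E. coli RNA polymerase and titrated with SNAP-549-labelled MS2 coat protein, from 0.7 or 1.5 nM doubling to 3 µM, in Tris-HCl pH 7.5 buffer with KCl, MgCl2, BSA, DTT, tRNA and Tween-20. Steps lasted 0.8–1.5 h (lowest) to 10–20 min (highest). Titrations ran without input, with 200 uM small-molecule ligand, or with an oligonucleotide input. Normalised cluster fluorescence was curve-fitted, and apparent KD is the per-design median over clusters.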

[1] abbreviates: Eterna round: R95, input ligand: microRNA oligo, concentration not stated.
Setting [2] is: Eterna round: R95, input ligand: FMN 200 uM.
Where [3] appears, read: Eterna round: R95, input ligand: none.
Setting [4] is: input ligand: microRNA oligo, concentration not stated.

Take “GUUUCACAUGAGGAUCACCCAUGUGAGGAUAUGGACUUUUUAGUAAUAAUUGUUGGGUUCAGAAGGCGCGUGAU [JR_Exc1_Sub005] (Eterna round: R97, puzzle: Exclusion 1)”: the “apparent KD of MS2 coat protein” value (input ligand: FMN 200 uM) came to 0.0531 µM and the “apparent KD of MS2 coat protein” value (input ligand: none) came to 0.0447 µM.

Turning to “GUUUCGUGAGGAUAUGUGGCUUCGAUCGUGCGAAGAAGGCUACAGAAGGCACAUGAGGAUCACCCAUGUUCGUC [salish99_ex4_r4_227] (Eterna round: R97, puzzle: Exclusion 4)”, the “apparent KD of MS2 coat protein” value by setting is: (input ligand: FMN 200 uM) 0.152 µM; (input ligand: none) 0.0421 µM.

For “GUUUGACAUGAGGAUCACCCAUGUGAGGAUAUCGGCUGGUACGUGUUGGCUGGCAUCUCGAGAAGGCACAUAGG [Exclusion 1 V58] (puzzle: Exclusion 1)”, under setting [1], the “apparent KD of MS2 coat protein” value came out at 0.109 µM.

For the sequence “GUUUGACAUGAGGAUCACCCAUGUGAGGAUAUCGUCUGGUACGUGUUGGCUGGCAUCUCGAGAAGGCGCAUAGG [Exclusion 1 V57] (puzzle: Exclusion 1)”, the “apparent KD of MS2 coat protein” value runs as follows: under setting [2], 0.0759 µM; under setting [1], 0.0497 µM; under setting [3], 0.0649 µM.

With “GUUUGAUUAGGAUAUACAUGAGGAUCACCCAUGUGUCCCAGUUUAGAAAUAGACAAAAGUAGAAGGGAUUAGAU [Starry 2] (Eterna round: R97, puzzle: Exclusion 3)”, the “apparent KD of MS2 coat protein” value runs as follows: (input ligand: FMN 200 uM) 0.0378 µM; (input ligand: none) 0.0458 µM.

As for “GUUUGCGCAGGAUAUACUCCUCCAUGUUAAGAGCAUGUGCGACAUGAGGAUCACCCAUGUAGAAGGGCGAGACG [Eternabot (L2) Solution 8] (Eterna round: R97, puzzle: Exclusion 2)”, the “apparent KD of MS2 coat protein” value reads like this: (input ligand: FMN 200 uM) 0.194 µM; (input ligand: none) 0.345 µM.

For the sequence “GUUUUCAGACGGAGAUCCUACAUGAGGAUCACCCAUGUCUCACUUGUUUUUUGCUCGUCUUAUCCUCCUCUGUUCUC [Elimod 30 - Jieux - Sensor, turn-off variant 1] (Eterna round: R97, puzzle: Sensor, turn-off variant 1)”, the “apparent KD of MS2 coat protein” value reads like this: (input ligand: FMN 200 uM) 0.414 µM; (input ligand: none) 0.667 µM.

For “GUUUUCAGACGGAGAUCCUACAUGAGGAUCACCCAUGUCUCUCUUGUUUUUUGCUCGUCUUAUCCUCCUCUGUUCUC [Elimod 31 - Jieux - Sensor, turn-off variant 1] (Eterna round: R97, puzzle: Sensor, turn-off variant 1)”, the “apparent KD of MS2 coat protein” value stood at 0.467 µM (input ligand: FMN 200 uM) and 0.52 µM (input ligand: none).

As to “GUUUUGGGAGGAUAUAUGUGGAUAAUUUUUAUAUGAAAAUUACAUGAGGAUCACCCAUGUAGAAGGUCUAGAGC [-17.2, -15.1 kcal, 32% A] (Eterna round: R97, puzzle: Exclusion 2)”, the “apparent KD of MS2 coat protein” value reads like this: (input ligand: FMN 200 uM) 0.473 µM; (input ligand: none) 0.637 µM.

Take “GUUUUGUGAGGAUAUCCCUAUCAUCUAGCUGACUAGAUGGUGGAGAAGGCACAUGAGGAUCACCCAUGUGGGAG [Eternabot (L1) Solution 3] (Eterna round: R97, puzzle: Exclusion 4)”: the “apparent KD of MS2 coat protein” value is, setting by setting: (input ligand: FMN 200 uM) 0.111 µM; (input ligand: none) 0.0901 µM.

On to “UAAAAGGUAGGAUAUACGAAAAAAAAGGGUAGAAAAAAAACACAUGAGGAUCACCCAUGUAGAAGGACCAAAAU [salish99_ex2_r3_041] (puzzle: Exclusion 2)”, for which the “apparent KD of MS2 coat protein” value is 0.0897 µM under setting [2], 0.0286 µM under setting [1] and 0.0269 µM under setting [3].

For the sequence “UAAAAGUGAGGAUAUACGUGAAAUCCGCCAGGCGGAGAUCUACAUGAGGAUCACCCAUGUAGAAGGCACGGAAU [EX2 A.13] (Eterna round: R97, puzzle: Exclusion 2)”, the “apparent KD of MS2 coat protein” value came out at 0.0158 µM (input ligand: FMN 200 uM) and 0.014 µM (input ligand: none).

Take “UAAACCAGAGGAUAUGCGAAUAAAUAAAACUUUUUUUUUUAACAUGAGGAUCACCCAUGUAGAAGGCUGCAAAU [Ex2 #33] (Eterna round: R97, puzzle: Exclusion 2)”: the “apparent KD of MS2 coat protein” value (input ligand: FMN 200 uM) was determined as 0.03 µM and the “apparent KD of MS2 coat protein” value (input ligand: none) was determined as 0.0389 µM.

Regarding “UAAAGAGCAGGAUAUCUAAUGUAUCACAUGAGGAUCACCCAUGUCCAGCGAAAGCUGGAGGGAGAAGGGCUCUAAU [Mat - Exclusion 5 - Eli mod - D103] (puzzle: Exclusion 5)”, the “apparent KD of MS2 coat protein” value is, setting by setting: under setting [2], 0.178 µM; under setting [1], 0.182 µM; under setting [3], 0.13 µM.

Turning to “UAAAGGCUAGGAUAUCGCACCUUCGACAUGAGGAUCACCCAUGUAUGUCGAUGGUAAAAUCGAGAAGGAGCGAGAA [Artiedqu] (puzzle: Exclusion 5)”, the “apparent KD of MS2 coat protein” value was 0.0317 µM under setting [2], 0.0217 µM under setting [1] and 0.0178 µM under setting [3].

For the sequence “UAAAGUAUAUAGGAUAUCUAGCUGGUAACAGCUAGAGAAGGAUGUACAUGAGGAUCACCCAUGUAAAUCGUGAA [Ex6/13-A2] (Eterna round: R97, puzzle: Exclusion 6)”, the “apparent KD of MS2 coat protein” value reads like this: (input ligand: FMN 200 uM) 0.0205 µM; (input ligand: none) 0.0169 µM.

With “UAAAUCGCAGGAUAUCCAGAGGAGGACAUGAGGAUCACCCAUGUGGAAAGGAAAGGAGGAGGAGAAGGGCGAUUUA [Paired] (Eterna round: R97, puzzle: Exclusion 5)”, the “apparent KD of MS2 coat protein” value worked out at 0.0844 µM (input ligand: FMN 200 uM) and 0.0725 µM (input ligand: none).

Consider “UAAAUGCUGCGAGGAUAUACAUGAGGAUCACCCAUGUGGAUGUCUGAGGCUUUGCCUCAGACGAUGUAGAAGGCGCAGUAAAAU [Mat - Exclusion NG 2 - Mod of JL - D52] (Eterna round: R96, puzzle: Exclusion NG 2)”, for which the “apparent KD of MS2 coat protein” value by setting is: (input ligand: FMN 200 uM) 0.134 µM; under setting [4], 0.0157 µM; (input ligand: none) 0.0225 µM.

In the case of “UAAAUGUGAGGAUAUCAGGUGUGCUAGAAUACUGGUACAUCUGAGAAGGCACAUGAGGAUCACCCAUGUUCCUU [Mat - Exclusion 4 - Mod of JL - D53] (puzzle: Exclusion 4)”, the “apparent KD of MS2 coat protein” value under setting [1] was found to be 0.0158 µM.

As to “UAACAACAUGAGGAUCACCCAUGUGAGGAUAUGUACGUUCGUUGGCGAACCUUGUUCCGCAGAAGGCAUGUGGG [Eternabot (L1) Solution 28] (Eterna round: R97, puzzle: Exclusion 1)”, the “apparent KD of MS2 coat protein” value was 0.232 µM (input ligand: FMN 200 uM) and 0.0386 µM (input ligand: none).

For the sequence “UAACAAGCUUAAAGAUCCUACAUGAGGAUCACCCAUGUGCUCGUCUUAUAACGUACUGUGACGAAAGUCACGGUACG [JL TOV1 3.14] (Eterna round: R97, puzzle: Sensor, turn-off variant 1)”, the “apparent KD of MS2 coat protein” value by setting is: (input ligand: FMN 200 uM) 0.348 µM; (input ligand: none) 0.395 µM.

Consider “UAACAAGCUUAAAGAUCCUACAUGAGGAUCACCCAUGUGCUCGUCUUGUAACGUACUGUGACGAAAGUCACGGUACG [JL TOV1 3.15] (Eterna round: R97, puzzle: Sensor, turn-off variant 1)”, for which the “apparent KD of MS2 coat protein” value came out at 0.521 µM (input ligand: FMN 200 uM) and 0.314 µM (input ligand: none).

For the sequence “UAACAGCAAGGAUAUACGGGCUGUGCUUUUCAUUUCUUACAACAUGAGGAUCACCCAUGUAGAAGGUGCAACAA [Ex2 #6] (Eterna round: R97, puzzle: Exclusion 2)”, the “apparent KD of MS2 coat protein” value runs as follows: (input ligand: FMN 200 uM) 0.0544 µM; (input ligand: none) 0.0248 µM.

On to “UAACAUCUGAUUCUUGAGAUACAUGAGGAUCACCCAUGUUCACAGGAUAUUGAUUUUAAGAAAAGCAAGAAGGGUGAAUCAUUU [JR_ExcNG3_Sub042] (Eterna round: R96, puzzle: Exclusion NG 3)”, for which the “apparent KD of MS2 coat protein” value reads like this: (input ligand: FMN 200 uM) 0.0341 µM; under setting [4], 0.019 µM; (input ligand: none) 0.0207 µM.

For the sequence “UAACAUGUACAAGGAUAUCAGCACGAUUAGUGCUGAGAAGGUGUAACAUGAGGAUCACCCAUGUAGAUCAUUAAUUAAUUAAUU [ENG1/9-B1] (Eterna round: R96, puzzle: Exclusion NG 1)”, the “apparent KD of MS2 coat protein” value was determined as 0.319 µM (input ligand: FMN 200 uM), 0.0609 µM under setting [4] and 0.0566 µM (input ligand: none).

Turning to “UAACAUGUCUGAGGAUAUCUGCACGUGUAGUGCAGAGAAGGCAGAACAUGAGGAUCACCCAUGUAGAUCAUUAAUUAAUUAAUU [ENG1/7-B3] (Eterna round: R96, puzzle: Exclusion NG 1)”, the “apparent KD of MS2 coat protein” value reads like this: (input ligand: FMN 200 uM) 0.765 µM; under setting [4], 0.337 µM; (input ligand: none) 0.478 µM.

Regarding “UAACAUGUCUGAGGAUAUCUGCACGUUUAGUGCAGAGAAGGCAGAACAUGAGGAUCACCCAUGUAGAUCAUUAAUUAAUUAAUU [ENG1/7-B2] (Eterna round: R96, puzzle: Exclusion NG 1)”, the “apparent KD of MS2 coat protein” value (input ligand: FMN 200 uM) is 0.195 µM, the “apparent KD of MS2 coat protein” value under setting [4] was 0.142 µM and the “apparent KD of MS2 coat protein” value (input ligand: none) was 0.194 µM.

“UAACCUCGCGUCAGGAUAUGCGAGGACUGUGACGUGCAGAAGGGACAUGAGGAUCACCCAUGUGAAAGAAUUAA [Acecequ] (puzzle: Brourd's mod of Exclusion 4)”: the “apparent KD of MS2 coat protein” value under setting [1] is 0.0203 µM.

Take “UAACUACAUGAGGAUCACCCAUGUCAGGAUAUGCCGUUAAAUUAACAUCAACAUACGGGUAGAAGGGACAGCGU [1st #4] (Eterna round: R97, puzzle: Exclusion 1)”: the “apparent KD of MS2 coat protein” value reads like this: (input ligand: FMN 200 uM) 0.03 µM; (input ligand: none) 0.0292 µM.

On to “UAAGAAUGCAAGGAUAUGGCUAGGUAAAACAUGUCAGAAGGUGCUACAUGAGGAUCACCCAUGUGUCUCGUGCG [Eternabot (L1) Solution 2] (Eterna round: R97, puzzle: Exclusion 6)”, for which the “apparent KD of MS2 coat protein” value (input ligand: FMN 200 uM) came to 0.0758 µM and the “apparent KD of MS2 coat protein” value (input ligand: none) came to 0.0643 µM.

Consider “UAAGAGUGAGGAUAUACGUCGCUGGUCCAGAUGGACGCAUGACAUGAGGAUCACCCAUGUAGAAGGCACAAAAC [Enxela Mod 3 - Jieux - Exclusion 2] (Eterna round: R97, puzzle: Exclusion 2)”, for which the “apparent KD of MS2 coat protein” value is, setting by setting: (input ligand: FMN 200 uM) 0.189 µM; (input ligand: none) 0.0328 µM.

The values are drawn from the supplement of paper PMC9170038.
